These are literature values, as cited in paper PMC8322311.

As usually defined, the Kd is the free concentration of one partner at which half of the binding sites on the other are occupied at equilibrium, for simple one-to-one binding.

Where two headings read alike, the source gives them in different places.

In data set [1] the target is SHH (Homo sapiens) (UniProt Q15465).
Data set [2] shares this target. This is another data set of the same source.

For the substance Glypican-3 (from UniProt P51654), in the data set with SHH (Homo sapiens) [1], the Kd was 32 nM. Consider HHIP (from UniProt Q96QV1), for which, in the data set with SHH (Homo sapiens) [2], the Kd was 6 nM.
